Data: patent publication US7485460B2, “Enhanced growth of adult stem cells with Dkk-1” (Tulane University Health Sciences Center, priority 2003, dated 2009)

B1: recombinant Dkk-1: Histidine-tagged recombinant human Dkk-1 expressed in E. coli, refolded from inclusion bodies; inhibitor of Wnt signaling (protein)
chain: TLNSVLNSNAIKNLPPPLGGAAGHPGSAVSAAPGILYPGGNKYQTIDNYQPYPCAEDEECGTDEYCASPTRGGDAGVQICLACRKRRKRCMRHAMCCPGNYCKNGICVSSDQNHFRGEIEETITESFGNDHSTLDGYSRRTTLSSKMYHTKGQEGSVCLRSSDCASGLCCARHFWSKICKPVLKEGQVCTKHRRKGSHGLEIFQRCYCGEGLSCRIQKDHHQASNSSRLHTCQRH

Assays:
MSCs (RS cells) = experiment: Binding of biotinylated Dkk-1 peptides to MSCs (streptavidin-biotin fluorescence microscopy); parameters: species or system human; conditions: for fluorescence of MSCs labeled with peptide: FIGS. 30A-30G correspond to peptides A-G; for binding to early progenitor cells (RS cells): biotin-labeled peptide, streptavidin Alexafluor 594
Source text: FIG. 30, comprising FIGS. 30A-30H, is an image of a set of photomicrographs depicting solid phase binding assays to MSCs using biotinylated peptides. The labeled peptides in FIGS. 30A-30G correspond to peptides A-G in FIG. 29. FIG. 30H is a control.
The peptides were then labeled with biotin for use with a commercially available streptavidin-biotin detection system. The streptavidin was linked to a fluorescent tag (Alexafluor 594, Molecular Probes, Eugene, Oreg.) so as to be easily detected by fluorescence microscopy. MSCs were incubated with one of the peptides and the streptavidin-biotin detection system as indicated by the manufacturer's instructions. Then the MSCs were observed under a fluorescence microscope. All of these methods are well-known in the art and are easily found throughout the literature.

hMSCs [1] = experiment: Colony-forming potential of hMSCs with recombinant Dkk-1 (crystal violet); type: cell-based, human
Experimental: MSCs were plated at about 0.6 cells per cm^2 and incubated in complete medium for 17 days. For direct visualization of colonies, a 5% (w/v) solution of crystal violet in methanol (Sigma Aldrich, St. Louis, Mo.) was added to tissue culture dishes previously washed twice with PBS. After 20 minutes, the plates were washed with distilled water and air-dried. Stained colonies with diameters 2 millimeters or greater were counted.
To test the effect of recombinant Dkk-1 on the colony-forming potential of hMSCs, 100 hMSCs were plated onto a 176 cm2 tissue culture dish and allowed to form colonies in the absence or presence of Dkk-1 in medium supplemented with 10% (v/v) fetal calf serum instead of the optimal concentration of 20%.

beta-catenin [2] = experiment: beta-catenin levels in hMSCs by western blotting; type: cell-based, human; conditions: stationary phase hMSCs, 0.1 micrograms per milliliter
Experimental: For immunoblotting, filters were blocked in PBS containing 0.1% (v/v) Tween 20 (Sigma, St. Louis, Mo.) for 1 hour. For detection of beta-catenin, blots were probed with an anti-beta-catenin monoclonal antibody at a dilution of 1 to 1000 (clone 5H10 Chemicon International; Temecula, Calif.) followed by an anti-mouse peroxidase-conjugated rabbit serum (Sigma Aldrich, St. Louis, Mo.). For detection of Dkk-1, blots were probed in 1 microgram per milliliter of anti Dkk-1 polyclonal antibody (see below) followed by an anti-rabbit peroxidase-conjugated monoclonal antibody (clone RG 96, Sigma Aldrich, St. Louis, Mo.). Positive bands were detected by chemiluminescence in accordance with a previously described procedure (Spees et al. Cell Stress Chaperones, 7:97-106 (2002)).
In further experiments, the effect of recombinant Dkk-1 on beta-catenin levels in hMSCs were investigated.

beta-catenin [3] = experiment: Cellular distribution of beta-catenin in hMSCs by immunostaining; type: cell-based, human; conditions: stationary phase hMSCs, 0.1 micrograms per milliliter
Experimental: hMSCs in tissue culture dishes were fixed with 4% (v/v) Paraformaldehyde (USB Corporation, Cleveland, Ohio) for 10 minutes at 4° C. and washed with PBS (Fisher Lifesciences, Pittsburgh, Pa.). Sections (30 millimeter×60 millimeter) of the dishes containing the adherent cells were excised using a hot scalpel under constant hydration with PBS. The samples were blocked in PBS containing 0.4% (v/v) Triton X-100 (Sigma Aldrich, St. Louis, Mo.) and 5% (v/v) goat serum (Sigma Aldrich). Anti-beta-catenin (described above) was added in a 1:400 dilution to the slides in block solution. An appropriate concentration of mouse IgG1 (Cymbus Biotechnology Chandlers Ford, Hants, UK) was used as an isotype control. The samples were incubated for 16 hours at 4° C. followed by washing in PBS. The samples were then incubated for 1 hour in a 1:800 dilution of Alexa-Fluor 594-congugated secondary antibody (Molecular Probes, Eugene, Oreg.). Isotype controls were acquired from Chemicon and Becton Dickinson Slides were washed and mounted with medium containing DAPI (Vector Laboratories Incorporated; Burlingame, Calif.). Immunofluorescence microscopy and digital imaging was carried out using an upright fluorescent microscope (Eclipse 800, Nikon, Japan). […]

hMSCs [4] = experiment: Effect of recombinant Dkk-1 on hMSC proliferation (fluorescence assay for nucleic acids); type: cell-based, human
Experimental: For assay of proliferation, cells were also quantified by fluorescent labeling of nucleic acids (CyQuant dye; Molecular Probes Incorporated; Eugene, Oreg.). hMSCs were plated at 100 cells per cm^2 into 10 cm^2 wells and allowed to grow for 4 days. The cells were washed with PBS and medium was added containing the appropriate concentration of Dkk-1 and FCS. The cells were recovered by trypsinization as described above. Fluorescence analysis was carried out using a microplate fluorescence reader (FLx800; Bio-Tek Instruments Incorporated; Winooski, Vt.) set to 480 nanometers excitation and 520 nanometers emission.
To test the hypothesis that Dkk-1 increased proliferation of hMSCs, its effects on rate of growth were assayed. The hMSCs were plated at a density of 100 cells per cm^2 in 6 well plates (10 per cm^2 per well). After 4 days, when the cells were in early log phase of growth, the conditioned medium was removed and replaced with fresh medium containing either vehicle, 0.1 micrograms per milliliter Dkk-1 or 0.01 micrograms per milliliter Dkk-1.

[5] = 100 hMSCs per 176 cm2 dish, 10% FCS, 2.5 weeks

| Molecule | fluorescence of MSCs labeled with peptide (MSCs (RS cells)) | binding to early progenitor cells (RS cells) (MSCs (RS cells)) | colony size and number at high concentration (hMSCs [1]; 0.5 micrograms per milliliter) | colony number (hMSCs [1]; [5]) | colony size (hMSCs [1]; [5]) | beta-catenin levels (beta-catenin [2]) | cellular distribution of beta-catenin (beta-catenin [3]) | duration of effect on proliferation (hMSCs [4]; 0.1 micrograms per milliliter) | rate of proliferation at high concentration (hMSCs [4]; 0.5 micrograms per milliliter) | effect on proliferation as cells approached stationary phase (hMSCs [4]; cells approaching stationary phase of growth) | effect on lag phase and proliferation (hMSCs [4]; early log phase hMSCs, fresh medium with 0.1 or 0.01 micrograms per milliliter Dkk-1) | duration of significant effect on proliferation (hMSCs [4]; tenfold less Dkk-1 (0.01 micrograms per milliliter)) |
| --- | --- | --- | --- | --- | --- | --- | --- | --- | --- | --- | --- | --- |
| LSSKMYHTKGQEGSVCLRSS (Peptide synthesized from Dkk-1 LRP-6 binding domain) [Peptide B] | highly fluorescent | tightly bound |  |  |  |  |  |  |  |  |  |  |
| sTKHRRKGSHGLEIFQRCYs (STKHRRKGSHGLEIFQRCYS; Peptide synthesized from Dkk-1 LRP-6 binding domain) [Peptide E] | highly fluorescent | tightly bound |  |  |  |  |  |  |  |  |  |  |
| B1 |  |  | reduced both the colony size and number | no significant effect | increased colony size | reduced the levels of beta-catenin | clearance of the cytoplasmic pool of beta-catenin | 30 h | failed to increase the rate of proliferation | no significant effect | reduced the lag phase and initially increased proliferation | about 15 hours |
